The values below come from patent US20260009052, “CAS12 PROTEINS AND USES THEREOF” (GUANGZHOU REFORGENE MEDICINE CO., LTD., published 2026).

In one series the target is T1, C12-279 L260R (synthetic construct, L260R).
T1 chain: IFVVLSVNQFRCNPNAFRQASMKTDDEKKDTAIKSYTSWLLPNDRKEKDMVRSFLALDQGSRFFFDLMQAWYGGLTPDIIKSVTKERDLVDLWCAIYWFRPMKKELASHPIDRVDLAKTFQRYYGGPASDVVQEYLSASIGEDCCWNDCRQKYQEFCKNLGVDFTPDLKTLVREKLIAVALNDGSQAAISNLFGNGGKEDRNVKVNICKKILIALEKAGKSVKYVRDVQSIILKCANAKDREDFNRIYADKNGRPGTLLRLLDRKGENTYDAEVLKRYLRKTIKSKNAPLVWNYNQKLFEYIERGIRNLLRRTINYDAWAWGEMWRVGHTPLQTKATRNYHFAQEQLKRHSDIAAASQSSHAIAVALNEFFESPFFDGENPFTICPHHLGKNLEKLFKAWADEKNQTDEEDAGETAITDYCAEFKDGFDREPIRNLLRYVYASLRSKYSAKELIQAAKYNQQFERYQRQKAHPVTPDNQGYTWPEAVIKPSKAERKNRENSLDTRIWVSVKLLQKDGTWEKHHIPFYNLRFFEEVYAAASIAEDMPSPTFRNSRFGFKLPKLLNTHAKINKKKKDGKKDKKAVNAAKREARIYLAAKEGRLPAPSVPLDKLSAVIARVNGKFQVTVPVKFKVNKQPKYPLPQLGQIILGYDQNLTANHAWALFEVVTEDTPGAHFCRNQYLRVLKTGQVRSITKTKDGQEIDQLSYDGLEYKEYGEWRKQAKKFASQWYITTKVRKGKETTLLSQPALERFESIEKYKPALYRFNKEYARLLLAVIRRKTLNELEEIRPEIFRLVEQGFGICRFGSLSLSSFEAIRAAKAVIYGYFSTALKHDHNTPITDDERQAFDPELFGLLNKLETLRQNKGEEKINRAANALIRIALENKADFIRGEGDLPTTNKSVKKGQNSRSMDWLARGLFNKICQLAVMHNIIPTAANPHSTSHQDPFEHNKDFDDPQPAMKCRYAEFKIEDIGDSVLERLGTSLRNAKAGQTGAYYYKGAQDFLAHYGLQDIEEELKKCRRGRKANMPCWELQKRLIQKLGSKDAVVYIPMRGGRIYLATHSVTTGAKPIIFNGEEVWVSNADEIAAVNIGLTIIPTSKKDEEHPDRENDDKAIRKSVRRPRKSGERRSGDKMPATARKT
The series is described as follows: cell_activity; PAM TTG; +/-0.14. How it is done:
(§1) Transfection: transfection was performed 12-14 h after plating. 1.5 μL PEI (Yeasen Biotechnology, 40815ES03, Polyethylenimine Linear (PEI) MW25000) and 500 ng mutation clone plasmid were added to 100 μL Opti-MEM per well of the 24-well plate, mixed, and added to the NAAN cell line for cell transfection after placing at room temperature for 20 min. After overnight transfection, a fresh culture medium was replaced, and the culture was continued for 72 h, followed by flow cytometry. Editing efficiencies of different mutant clones were characterized by the proportion of GFP-positive cells.
(§2) Editing efficiency of some selected mutants was tested in Reporter3 cell line using the same manner as described for the NAAN reporter system, except that the cell line was changed from NAAN cell line to Reporter3 cell line.

The next series deals with T2, C12-279 G989R (synthetic construct, G989R).
T2 chain: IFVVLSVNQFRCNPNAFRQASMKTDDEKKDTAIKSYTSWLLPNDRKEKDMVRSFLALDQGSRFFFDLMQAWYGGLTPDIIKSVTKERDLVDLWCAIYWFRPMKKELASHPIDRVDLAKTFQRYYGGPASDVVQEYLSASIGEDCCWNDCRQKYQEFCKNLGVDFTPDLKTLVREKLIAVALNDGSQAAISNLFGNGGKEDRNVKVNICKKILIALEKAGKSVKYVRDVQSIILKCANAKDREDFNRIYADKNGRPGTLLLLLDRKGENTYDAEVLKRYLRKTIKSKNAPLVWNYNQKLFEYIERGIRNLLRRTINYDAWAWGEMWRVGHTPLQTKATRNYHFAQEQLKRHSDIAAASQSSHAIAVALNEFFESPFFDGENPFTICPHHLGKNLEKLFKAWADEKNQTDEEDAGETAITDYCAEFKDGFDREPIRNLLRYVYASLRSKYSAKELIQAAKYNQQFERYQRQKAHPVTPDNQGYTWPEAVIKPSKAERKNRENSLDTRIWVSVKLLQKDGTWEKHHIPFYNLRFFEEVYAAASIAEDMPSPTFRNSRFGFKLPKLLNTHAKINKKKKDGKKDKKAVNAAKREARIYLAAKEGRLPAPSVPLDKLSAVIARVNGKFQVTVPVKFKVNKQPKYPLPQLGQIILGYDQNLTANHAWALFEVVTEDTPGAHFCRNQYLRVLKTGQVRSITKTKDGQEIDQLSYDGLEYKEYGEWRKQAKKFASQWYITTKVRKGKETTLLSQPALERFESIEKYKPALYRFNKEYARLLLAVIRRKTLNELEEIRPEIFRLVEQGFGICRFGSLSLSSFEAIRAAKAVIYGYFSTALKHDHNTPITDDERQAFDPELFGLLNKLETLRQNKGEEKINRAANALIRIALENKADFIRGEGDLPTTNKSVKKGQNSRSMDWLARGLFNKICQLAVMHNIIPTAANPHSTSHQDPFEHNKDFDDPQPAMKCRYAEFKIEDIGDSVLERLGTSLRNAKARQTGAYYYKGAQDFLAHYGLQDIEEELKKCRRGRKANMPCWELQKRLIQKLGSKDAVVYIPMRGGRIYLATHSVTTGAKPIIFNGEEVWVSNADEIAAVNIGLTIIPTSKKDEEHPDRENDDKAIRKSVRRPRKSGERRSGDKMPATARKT
Kind of series: cell_activity; PAM TTG; +/-0.2. How it is done:
as §1, §2

B1: C12-279 Reporter3 sgRNA ; Reporter3 target (ssRNA ; dsDNA)
RNA: GUAAUGCGUCUCCCAUUGACGCCUCACCUCGCGACGCAAUGAUG
DNA 1: CTCACCTCGCGACGCAATGATG
DNA 2: CATCATTGCGTCGCGAGGTGAG
B1: the figures for the binding signal with C12-279 L260R and in the series with C12-279 G989R were 0.66 fold of C12-279 and 1.27 fold of C12-279, respectively.
